# Reference: article PMC5715097
# Target: Sulfolobus solfataricus RNA polymerase (S. solfataricus)
substance,measurement,value
Sulfolobus solfataricus TFS4 (from UniProt Q97X43 1-92) (natural protein),transcription elongation assay on a synthetic scaffold: excess of TFS1 over TFS4 needed for 50% relief of the inhibition by TFS4 (fold excess of TFS1 over TFS4),2
